The text below walks through data of patent US20150125479A1.

The target of this test is RSV fusion (F) glycoprotein (respiratory syncytial virus) (UniProt P12568). Briefly: SPR (Biacore); the partner is not named in the row, RSV F protein is taken from the legend of FIG. 4. (In general: SPR reads the build-up and loss of mass on a sensor chip optically.)

For the substance “NUMAX™ (motavizumab), MEDI-524 Mab (antibody)”, the Kd was 4 pM.

The term Kd denotes the equilibrium constant for the complex coming apart. Read a high Kd as a looser complex.
